Data from patent publication US20230192896A1 (BIOVERATIV THERAPEUTICS, published 2023).

Molecular target: T1, activated Factor X (FXa) (Homo sapiens (Human), UniProt P00742 41-179; P00742 235-488)
T1 construct: also called free FXa; factor Xa
Test: BLI, antibody on AHQ sensor

T1 sequence (P00742 41-179, chain 1 of 2): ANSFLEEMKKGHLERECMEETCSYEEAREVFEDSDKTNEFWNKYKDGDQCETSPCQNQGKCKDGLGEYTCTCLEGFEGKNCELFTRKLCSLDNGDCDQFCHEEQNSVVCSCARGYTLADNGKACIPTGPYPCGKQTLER
T1 sequence (P00742 235-488, chain 2 of 2): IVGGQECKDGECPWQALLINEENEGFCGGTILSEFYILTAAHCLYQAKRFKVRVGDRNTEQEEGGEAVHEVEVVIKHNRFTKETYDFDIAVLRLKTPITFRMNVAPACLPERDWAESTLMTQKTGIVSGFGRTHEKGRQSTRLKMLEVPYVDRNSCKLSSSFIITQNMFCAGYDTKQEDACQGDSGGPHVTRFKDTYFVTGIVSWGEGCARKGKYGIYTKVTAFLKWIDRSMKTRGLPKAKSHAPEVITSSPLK

B1: BIIB-12-917 (antibody, V domains shown)
VH: EVQLVQSGAEVKKPGESLKISCKGSGYSFTTYWIGWVRQMPGKGLEWMGIIYPGDSDTRYSPSFQGQVTISADKSISTAYLQWSSLKASDTAMYYCARGRFRPRGRFDYWGQGTLVTVSS
VL: EIVMTQSPATLSVSPGERATLSCRASQSVSSNLAWYQQKPGQAPRLLIYGASTRATGIPARFSGSGSGTEFTLTISSLQSEDFAVYYCQQLFNHPPTFGGGTKVEIK
notes: IgG
- binding result: no binding (tested: 250 nM)
